The text below walks through data of the Human Domainome abundance scans (Beltran et al. 2025).

± gives the uncertainty stated by the source.

First the molecules themselves.
B1: Transcription elongation factor A N-terminal and central domain-containing protein, residues 30 to 77; numbered along this chain, Q8N8B7 (parent)
chain: LTELETIYVTKEHLQETDVVRAVYRVLKNCPSVALKKKAKCLLSKWKA

This series covers variants of B1. The series can be described thus: abundance fitness (aPCA) (normalised: wild type 0, dead -1); higher = more abundant; growth selection in yeast, the domain comes from the species named. Conditions: Homo sapiens.
As for LTELETIYVTKEHLQETDVVRAVYRVLKNCPSVYLKKKAKCLLSKWKA, the abundance fitness was -0.174 ± 0.24.

Take LTELETIYVTKEHLQETDVVRAVYRVLKNCPSVWLKKKAKCLLSKWKA: the abundance fitness was -0.176 ± 0.12.

With LTELETIYVTKEHLQETDVVRAVYRVLKNCPSVPLKKKAKCLLSKWKA, the abundance fitness is -0.378 ± 0.12.

In the case of LTELETIYVTKEHLQETDVVRAVYRVLKNCPSVTLKKKAKCLLSKWKA, the abundance fitness is -0.161 ± 0.12.

Regarding LTELETIYVTKEHLQETDVVRAVYRVLKNCPSVGLKKKAKCLLSKWKA, the abundance fitness was -0.028 ± 0.075.

Regarding LTELETIYVTKEHLQETDVVRAVYRVLKNCPSVILKKKAKCLLSKWKA, the abundance fitness is -0.826 ± 0.35.

Consider LTELETIYVTKEHLQETDVVRAVYRVLKNCPSVHLKKKAKCLLSKWKA, for which the abundance fitness is -0.057 ± 0.23.

Turning to LTELETIYVTKEHLQETDVVRAVYRVLKNCPSVNLKKKAKCLLSKWKA, the abundance fitness was 0.266 ± 0.17.

LTELETIYVTKEHLQETDVVRAVYRVLKNCPSVELKKKAKCLLSKWKA: the abundance fitness was -0.308 ± 0.1.

For the variant LTELETIYVTKEHLQETDVVRAVYRVLKNCPSVFLKKKAKCLLSKWKA, the abundance fitness is -0.305 ± 0.32.

For the variant LTELETIYVTKEHLQETDVVRAVYRVLKNCPSVKLKKKAKCLLSKWKA, the abundance fitness was found to be 0.148 ± 0.1.

Regarding LTELETIYVTKEHLQETDVVRAVYRVLKNCPSVMLKKKAKCLLSKWKA, the abundance fitness is -0.163 ± 0.14.

In the case of LTELETIYVTKEHLQETDVVRAVYRVLKNCPSVVLKKKAKCLLSKWKA, the abundance fitness is -0.489 ± 0.096.

In the case of LTELETIYVTKEHLQETDVVRAVYRVLKNCPSVQLKKKAKCLLSKWKA, the abundance fitness is -0.464 ± 0.15.

For LTELETIYVTKEHLQETDVVRAVYRVLKNCPSVLLKKKAKCLLSKWKA, the abundance fitness was -0.279 ± 0.099.

In the case of LTELETIYVTKEHLQETDVVRAVYRVLKNCPSVDLKKKAKCLLSKWKA, the abundance fitness stood at 0.097 ± 0.13.

Turning to LTELETIYVTKEHLQETDVVRAVYRVLKNCPSVCLKKKAKCLLSKWKA, the abundance fitness was determined as 0.149 ± 0.18.

Turning to LTELETIYVTKEHLQETDVVRAVYRVLKNCPAVALKKKAKCLLSKWKA, the abundance fitness is 0.103 ± 0.15.

LTELETIYVTKEHLQETDVVRAVYRVLKNCPLVALKKKAKCLLSKWKA: the abundance fitness was 0.355 ± 0.089.

Consider LTELETIYVTKEHLQETDVVRAVYRVLKNCPHVALKKKAKCLLSKWKA, for which the abundance fitness amounted to 0.131 ± 0.24.

Consider LTELETIYVTKEHLQETDVVRAVYRVLKNCPTVALKKKAKCLLSKWKA, for which the abundance fitness is -0.022 ± 0.094.

Take LTELETIYVTKEHLQETDVVRAVYRVLKNCPPVALKKKAKCLLSKWKA: the abundance fitness was 0.039 ± 0.1.

On to LTELETIYVTKEHLQETDVVRAVYRVLKNCPNVALKKKAKCLLSKWKA, for which the abundance fitness is -0.017 ± 0.13.

On to LTELETIYVTKEHLQETDVVRAVYRVLKNCPRVALKKKAKCLLSKWKA, for which the abundance fitness was 0.022 ± 0.072.

Take LTELETIYVTKEHLQETDVVRAVYRVLKNCPIVALKKKAKCLLSKWKA: the abundance fitness turned out to be 0.27 ± 0.13.

LTELETIYVTKEHLQETDVVRAVYRVLKNCPDVALKKKAKCLLSKWKA: the abundance fitness is -0.389 ± 0.27.

For LTELETIYVTKEHLQETDVVRAVYRVLKNCPCVALKKKAKCLLSKWKA, the abundance fitness was found to be 0.367 ± 0.12.

Consider LTELETIYVTKEHLQETDVVRAVYRVLKNCPKVALKKKAKCLLSKWKA, for which the abundance fitness was -0.155 ± 0.078.

Regarding LTELETIYVTKEHLQETDVVRAVYRVLKNCPFVALKKKAKCLLSKWKA, the abundance fitness was determined as 0.211 ± 0.13.

LTELETIYVTKEHLQETDVVRAVYRVLKNCPQVALKKKAKCLLSKWKA: the abundance fitness was -0.439 ± 0.32.

Turning to LTELETIYVTKEHLQETDVVRAVYRVLKNCPVVALKKKAKCLLSKWKA, the abundance fitness came to 0.289 ± 0.13.

With LTELETIYVTKEHLQETDVVRAVYRVLKNCASVALKKKAKCLLSKWKA, the abundance fitness is 0.119 ± 0.065.

For LTELETIYVTKEHLQETDVVRAVYRVLKNCWSVALKKKAKCLLSKWKA, the abundance fitness is 0.382 ± 0.075.

With LTELETIYVTKEHLQETDVVRAVYRVLKNCISVALKKKAKCLLSKWKA, the abundance fitness amounted to 0.371 ± 0.085.

With LTELETIYVTKEHLQETDVVRAVYRVLKNCMSVALKKKAKCLLSKWKA, the abundance fitness turned out to be 0.457 ± 0.08.

With LTELETIYVTKEHLQETDVVRAVYRVLKNCSSVALKKKAKCLLSKWKA, the abundance fitness is 0.263 ± 0.071.

Take LTELETIYVTKEHLQETDVVRAVYRVLKNCNSVALKKKAKCLLSKWKA: the abundance fitness was -0.016 ± 0.1.

For the variant LTELETIYVTKEHLQETDVVRAVYRVLKNCYSVALKKKAKCLLSKWKA, the abundance fitness is -0.021 ± 0.092.

Regarding LTELETIYVTKEHLQETDVVRAVYRVLKNCHSVALKKKAKCLLSKWKA, the abundance fitness is -0.349 ± 0.11.

In the case of LTELETIYVTKEHLQETDVVRAVYRVLKNCKSVALKKKAKCLLSKWKA, the abundance fitness came out at 0.291 ± 0.092.

With LTELETIYVTKEHLQETDVVRAVYRVLKNCTSVALKKKAKCLLSKWKA, the abundance fitness was found to be 0.341 ± 0.077.

Turning to LTELETIYVTKEHLQETDVVRAVYRVLKNCFSVALKKKAKCLLSKWKA, the abundance fitness is 0.511 ± 0.092.

Turning to LTELETIYVTKEHLQETDVVRAVYRVLKNCGSVALKKKAKCLLSKWKA, the abundance fitness stood at 0.298 ± 0.06.

In the case of LTELETIYVTKEHLQETDVVRAVYRVLKNCQSVALKKKAKCLLSKWKA, the abundance fitness was -0.017 ± 0.096.

LTELETIYVTKEHLQETDVVRAVYRVLKNCLSVALKKKAKCLLSKWKA: the abundance fitness came to 0.355 ± 0.063.

With LTELETIYVTKEHLQETDVVRAVYRVLKNCESVALKKKAKCLLSKWKA, the abundance fitness is -0.357 ± 0.073.

Regarding LTELETIYVTKEHLQETDVVRAVYRVLKNCVSVALKKKAKCLLSKWKA, the abundance fitness was 0.337 ± 0.062.

Take LTELETIYVTKEHLQETDVVRAVYRVLKNCRSVALKKKAKCLLSKWKA: the abundance fitness came to 0.188 ± 0.062.

LTELETIYVTKEHLQETDVVRAVYRVLKNCPSNALKKKAKCLLSKWKA: the abundance fitness is -0.279 ± 0.2.

As to LTELETIYVTKEHLQETDVVRAVYRVLKNCPSDALKKKAKCLLSKWKA, the abundance fitness is -0.086 ± 0.11.

With LTELETIYVTKEHLQETDVVRAVYRVLKNCPSCALKKKAKCLLSKWKA, the abundance fitness turned out to be 0.041 ± 0.12.

Consider LTELETIYVTKEHLQETDVVRAVYRVLKNCPSLALKKKAKCLLSKWKA, for which the abundance fitness was 0.174 ± 0.087.

In the case of LTELETIYVTKEHLQETDVVRAVYRVLKNCPSQALKKKAKCLLSKWKA, the abundance fitness was determined as 0.007 ± 0.097.

Take LTELETIYVTKEHLQETDVVRAVYRVLKNCPSWALKKKAKCLLSKWKA: the abundance fitness was -0.096 ± 0.08.
